Results as given in US20110300138A1 (published 2011).
Read-outs that look alike come from different tables or passages of the source. One block for each molecule: values may come before it.

Experiments:
[1] = biological target: TSHR260-AP (human); experiment: TSHR260-AP bridge ELISA (full length TSHR on wells, TSHR260-AP in solution); IgG 0.5 µg/mL diluted in HBD serum
[2] = biological target: TSHR260-alkaline phosphatase (TSHR260-AP) (human) (UniProt P05187); experiment: TSHR260-AP bridge ELISA, full length TSHR on wells; 0.1 µg/mL, diluted in HBD
[3] = biological target: TSHR260-alkaline phosphatase (TSHR260-AP) (human) (UniProt P05187); experiment: TSHR260-AP bridge ELISA, full length TSHR on wells; 0.01 µg/mL, diluted in assay buffer
[4] = biological target: TSHR260-AP (human); experiment: TSHR260-AP bridge ELISA (full length TSHR on wells, TSHR260-AP in solution); IgG 0.005 µg/mL diluted in assay buffer
[5] = biological target: TSHR260-AP (human); experiment: TSHR260-AP bridge ELISA (full length TSHR on wells, TSHR260-AP in solution); IgG 100 µg/mL diluted in HBD serum
[6] = biological target: TSHR260-AP (human); experiment: TSHR260-AP bridge ELISA (full length TSHR on wells, TSHR260-AP in solution); IgG 250 µg/mL diluted in HBD serum
[7] = biological target: TSHR260-alkaline phosphatase (TSHR260-AP) (human) (UniProt P05187); experiment: TSHR260-AP bridge ELISA, full length TSHR on wells; 0.5 µg/mL, diluted in assay buffer
[8] = biological target: TSHR260-AP (human); experiment: TSHR260-AP bridge ELISA (full length TSHR on wells, TSHR260-AP in solution); IgG 0.1 µg/mL diluted in assay buffer
[9] = biological target: TSHR260-AP (human); experiment: TSHR260-AP bridge ELISA (full length TSHR on wells, TSHR260-AP in solution); IgG 0.1 µg/mL diluted in HBD serum
[10] = biological target: TSHR260-alkaline phosphatase (TSHR260-AP) (human) (UniProt P05187); experiment: TSHR260-AP bridge ELISA, full length TSHR on wells; 10 µg/mL, diluted in HBD
[11] = biological target: TSHR260-alkaline phosphatase (TSHR260-AP) (human) (UniProt P05187); experiment: TSHR260-AP bridge ELISA, full length TSHR on wells; 0.05 µg/mL, diluted in assay buffer
[12] = biological target: TSHR260-AP (human); experiment: TSHR260-AP bridge ELISA (full length TSHR on wells, TSHR260-AP in solution); IgG 0.01 µg/mL diluted in HBD serum
[13] = biological target: TSHR260-alkaline phosphatase (TSHR260-AP) (human) (UniProt P05187); experiment: TSHR260-AP bridge ELISA, full length TSHR on wells; 250 µg/mL, diluted in assay buffer
[14] = biological target: TSHR260-alkaline phosphatase (TSHR260-AP) (human) (UniProt P05187); experiment: TSHR260-AP bridge ELISA, full length TSHR on wells; 1 µg/mL, diluted in HBD
[15] = biological target: TSHR260-alkaline phosphatase (TSHR260-AP) (human) (UniProt P05187); experiment: TSHR260-AP bridge ELISA, full length TSHR on wells; 1 µg/mL, diluted in assay buffer
[16] = biological target: TSHR260-alkaline phosphatase (TSHR260-AP) (human) (UniProt P05187); experiment: TSHR260-AP bridge ELISA, full length TSHR on wells; 0.5 µg/mL, diluted in HBD
[17] = biological target: human TSHR (thyroid stimulating hormone receptor) expressed in transfected CHO cells (human) (UniProt P16473); experiment: cell-based or functional assay
[18] = biological target: TSHR260-AP (human); experiment: TSHR260-AP bridge ELISA (full length TSHR on wells, TSHR260-AP in solution); IgG 1 µg/mL diluted in HBD serum
[19] = biological target: TSHR260-AP (human); experiment: TSHR260-AP bridge ELISA (full length TSHR on wells, TSHR260-AP in solution); IgG 10 µg/mL diluted in assay buffer
[20] = biological target: TSHR260-AP (human); experiment: TSHR260-AP bridge ELISA (full length TSHR on wells, TSHR260-AP in solution); IgG 1 µg/mL diluted in assay buffer
[21] = biological target: TSHR260-AP (human); experiment: TSHR260-AP bridge ELISA (full length TSHR on wells, TSHR260-AP in solution); IgG 0.005 µg/mL diluted in HBD serum
[22] = biological target: TSHR260-alkaline phosphatase (TSHR260-AP) (human) (UniProt P05187); experiment: TSHR260-AP bridge ELISA, full length TSHR on wells; 100 µg/mL, diluted in HBD
[23] = biological target: human TSHR (wild type, full length) expressed in CHO cells (human) (UniProt P16473); experiment: cell-based or functional assay
[24] = biological target: human TSH receptor (full length, wild type) expressed in CHO cells (human) (UniProt P16473); experiment: cell-based or functional assay
[25] = biological target: human TSH receptor (full length, wild type) expressed in CHO cells (human) (UniProt P16473); experiment: cell-based or functional assay; remark: listed apart in the source

Mean absorbance at 405 nm (absorbance at 405 nm) [1]: 0.657 | Mean absorbance at 405 nm (absorbance at 405 nm) [2]: 0.365 | Mean absorbance at 405 nm (absorbance at 405 nm) [3]: 0.101 | Mean absorbance at 405 nm (absorbance at 405 nm) [4]: 0.075 | Mean absorbance at 405 nm (absorbance at 405 nm) [5]: 0.851 | Mean absorbance at 405 nm (absorbance at 405 nm) [6]: 0.833 | Mean absorbance at 405 nm (absorbance at 405 nm) [7]: 0.776 | Mean absorbance at 405 nm (absorbance at 405 nm) [8]: 0.653 | Mean absorbance at 405 nm (absorbance at 405 nm) [9]: 0.365 | Mean absorbance at 405 nm (absorbance at 405 nm) [10]: 0.796 | Mean absorbance at 405 nm (absorbance at 405 nm) [11]: 0.484 | Mean absorbance at 405 nm (absorbance at 405 nm) [12]: 0.03 | Mean absorbance at 405 nm (absorbance at 405 nm) [13]: 1.01 | Mean absorbance at 405 nm (absorbance at 405 nm) [14]: 0.726 | Mean absorbance at 405 nm (absorbance at 405 nm) [15]: 0.821 | Mean absorbance at 405 nm (absorbance at 405 nm) [16]: 0.657 | Cyclic AMP concentration; 3 ng/mL M22 IgG [17]: 21.3 pmol/mL | Mean absorbance at 405 nm (absorbance at 405 nm) [18]: 0.726 | Mean absorbance at 405 nm (absorbance at 405 nm) [19]: 0.872 | Mean absorbance at 405 nm (absorbance at 405 nm) [20]: 0.821 | Mean absorbance at 405 nm (absorbance at 405 nm) [21]: 0.045 | Mean absorbance at 405 nm (absorbance at 405 nm) [22]: 0.851
Molecule: M22 IgG (antibody)

Mean absorbance at 405 nm (absorbance at 405 nm) [1]: 0.016 | Mean absorbance at 405 nm (absorbance at 405 nm) [2]: -0.005 | Mean absorbance at 405 nm (absorbance at 405 nm) [3]: -0.001 | Mean absorbance at 405 nm (absorbance at 405 nm) [4]: -0.009 | Mean absorbance at 405 nm (absorbance at 405 nm) [5]: 0.027 | % Inhibition of T8 serum stimulation; 0.01 µg/mL 5C9 IgG [23]: 0% | % Inhibition of T8 serum stimulation; 0.1 µg/mL 5C9 IgG [23]: 91% | % Inhibition of T8 serum stimulation; 1 µg/mL 5C9 IgG [23]: 96% | % Inhibition of T8 serum stimulation; 10 µg/mL 5C9 IgG [23]: 97% | % Inhibition of T8 serum stimulation; 100 µg/mL 5C9 IgG [23]: 97% | Cyclic AMP concentration; 0.01 µg/mL 5C9 IgG + T8 [23]: 53.7 pmol/mL | Cyclic AMP concentration; 0.1 µg/mL 5C9 IgG + T8 [23]: 4.6 pmol/mL | Cyclic AMP concentration; 1 µg/mL 5C9 IgG + T8 [23]: 2.2 pmol/mL | Cyclic AMP concentration; 10 µg/mL 5C9 IgG + T8 [23]: 1.7 pmol/mL | Cyclic AMP concentration; 100 µg/mL 5C9 IgG + T8 [23]: 1.7 pmol/mL | Cyclic AMP concentration; 100 µg/mL 5C9 IgG alone [23]: 1.2 pmol/mL | Mean absorbance at 405 nm (absorbance at 405 nm) [6]: 0.058 | Mean absorbance at 405 nm (absorbance at 405 nm) [7]: -0.005 | Mean absorbance at 405 nm (absorbance at 405 nm) [8]: -0.013 | % Inhibition; T4 serum + 100 µg/mL 5C9 IgG [24]: 97.6% | % Inhibition; T5 serum + 100 µg/mL 5C9 IgG [24]: 98.3% | % Inhibition; T6 serum + 100 µg/mL 5C9 IgG [24]: 97.8% | Cyclic AMP concentration; 100 µg/mL 5C9 IgG alone [24]: 1.2 pmol/mL | Cyclic AMP concentration; HBD + 100 µg/mL 5C9 IgG [24]: 1.8 pmol/mL | Cyclic AMP concentration; T4 serum + 100 µg/mL 5C9 IgG [24]: 1.9 pmol/mL | Cyclic AMP concentration; T5 serum + 100 µg/mL 5C9 IgG [24]: 1.1 pmol/mL | Cyclic AMP concentration; T6 serum + 100 µg/mL 5C9 IgG [24]: 1.8 pmol/mL | Mean absorbance at 405 nm (absorbance at 405 nm) [9]: -0.005 | Mean absorbance at 405 nm (absorbance at 405 nm) [10]: 0.004 | Mean absorbance at 405 nm (absorbance at 405 nm) [11]: -0.008 | Mean absorbance at 405 nm (absorbance at 405 nm) [12]: 0.017 | Mean absorbance at 405 nm (absorbance at 405 nm) [13]: 1.12 | Mean absorbance at 405 nm (absorbance at 405 nm) [14]: 0.045 | Mean absorbance at 405 nm (absorbance at 405 nm) [15]: 0.011 | Mean absorbance at 405 nm (absorbance at 405 nm) [16]: 0.016 | Mean absorbance at 405 nm (absorbance at 405 nm) [18]: 0.045 | % Inhibition; T7 serum + 100 µg/mL 5C9 IgG [25]: 97.7% | % Inhibition; T8 serum + 100 µg/mL 5C9 IgG [25]: 97.9% | % Inhibition; T9 serum + 100 µg/mL 5C9 IgG [25]: 94.7% | Cyclic AMP concentration; HBD + 100 µg/mL 5C9 IgG [25]: 2.7 pmol/mL | Cyclic AMP concentration; T7 serum + 100 µg/mL 5C9 IgG [25]: 2.1 pmol/mL | Cyclic AMP concentration; T8 serum + 100 µg/mL 5C9 IgG [25]: 1.8 pmol/mL | Cyclic AMP concentration; T9 serum + 100 µg/mL 5C9 IgG [25]: 3 pmol/mL | Mean absorbance at 405 nm (absorbance at 405 nm) [19]: 0.099 | Mean absorbance at 405 nm (absorbance at 405 nm) [20]: 0.011 | Mean absorbance at 405 nm (absorbance at 405 nm) [21]: 0.02 | Mean absorbance at 405 nm (absorbance at 405 nm) [22]: 0.027
B1: 5C9 IgG (antibody, from another filing, V domains shown)
VH: EVQLVESGGGLIQPGGSLRLSCAASGFTVSSNYMSWVRQAPGKGLEWVSVTYSGGSTSYADSVKGRFTISRDNSKNTLYLQMNSLRAEDTAVYYCARGGRYCSSISCYARSGCDYWGQGTLVTVSS
VL: AIQMTQSPSSLSASVGDRVTITCRASQSISNYLNWYQQKPGKAPKLLIYAASSLQSGVPSRFSGSGSGTDFTLTISSLQPEDFATYYCQQSYSSPSTTFGQGTKLEIK
